Measured values from paper PMC8215385, “Design of a Proteolytically Stable Sodium-Calcium Exchanger 1 Activator Peptide for In Vivo Studies” (Frontiers in Pharmacology, 2021).
Non-standard residues stand in square brackets, D forms with d. No end group written: not given here. *: point of attachment. Biotin = O=C1N[C@H]2[C@H](CS[C@H]2CCCCC(=O)*)N1; NMePro = CN1CCC[C@H]1C(=O)*; Ahx = NCCCCCC(=O)O

T1: pSer68-PLMcyt (Mus musculus, UniProt Q9Z239)
T1 construct: purchased Genscript; host or cells: synthetic peptide
T1 sequence (Q9Z239 58-92 limits assumed): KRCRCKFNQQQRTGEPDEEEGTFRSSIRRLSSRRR

T2: OPT with three amino acids deleted at its N-terminus
T2 construct: source: synthetic peptide, spot-synthesised on cellulose membrane
T2 peptide: YKEIEQLIELANYQVLS

T3: mini-OPT
T3 construct: residues 3-18 of OPT; source: synthetic peptide, spot-synthesised on cellulose membrane
T3 peptide: PYKEIEQLIELANYQV

T4: OPT with two amino acids deleted at its C-terminus
T4 construct: C-terminus'; source: synthetic peptide, spot-synthesised on cellulose membrane
T4 peptide: YHPYKEIEQLIELANYQV

B1: NOPT-TAT (peptide)
peptide: [NMePro]YKEIEQLIELANYQVRKKRRQRRR
notes: also called TAT-conjugated NOPT; cell-permeable NOPT; source: synthetic peptide (Genscript, >80% purity)
B2: biotin-ahx-pSer68-PLMcyt (peptide)
peptide: {Biotin-Ahx}-KRCRCKFNQQQRTGEPDEEEGTFRSSIRRLSSRRR
modifications: also: phosphoserine at Ser68 (numbering not mappable from notes)
notes: cytoplasmic part of phospholemman (PLM, FXYD1), printed as [residues removed]; Immobilised on SA chips (SPR) and used as overlay probe on the peptide arrays; also called biotin-pSer68-PLM; biotin-pSer68-PLMcyt; source: synthetic peptide (Genscript, >80% purity)

Tests used:
[1] = biological target: T1, pSer68-PLMcyt; assay: Peptide array overlay with biotin-pSer68-PLM; type: binding; settings: membrane-synthesized peptides overlaid with 5 μM biotin-pSer68-PLM, anti-biotin-HRP
Text: Peptides on cellulose membranes were synthesized using a Multipep automated peptide synthesizer (INTAVIS Bioanalytical Instruments AG, Koeln, Germany) ([Frank, 1992], [Frank, 2002]). Peptides in solution were synthesized (listed below) at >80% purity by Genscript (Corporation, Piscataway, NJ, United States). For some of the peptides a cell-permeable TAT ([…]) or a biotin tag was included at either N- or C-terminus with or without an ahx-linker in between to avoid any potential steric hindrance.
Peptide array membranes were blocked in 1% casein for 2–4 h and overlaid with 5 μM of biotinylated pSer68-PLM peptide in 1% casein overnight at 4°C. The membranes were then washed three times for 10 min in TBS-T before incubation with anti-biotin-horseradish peroxidase (HRP) for 1 h (see Antibodies and Recombinant Protein). Peptide-bound spots were detected as described in the immunoblotting section.

[2] = tested on: adult mouse cardiomyocytes; assay: Ca2+ transients and SR Ca2+ load in isolated adult cardiomyocytes; type: cell-based; settings: 1 μM, vs scrambled control
Protocol: (§1) 8 weeks old C57BL6/J mice were randomized to SHAM or an aortic banding (AB) operation using o-rings (ORAB) as previously described ([Melleby et al., 2018]). Mice were anesthetized in a combination of 5% isoflurane and 95% O2, before endotracheal intubation and ventilation using a MiniVent rodent ventilator (Harvard Apparatus, United States). Left sided hemothoracotomy in the third intercostal space was performed, before dissection and placement of the o-ring around the ascending aorta. Animals were allowed to recover, and post-operative analgesia was achieved by injections of buprenorphine in accordance with the institutional guidelines. Animal experiments was approved by the Norwegian National Animal Research Committee (FDU 7040).
Cardiomyocytes were isolated based on a similar protocol as recently described ([Ackers-Johnson et al., 2016]). Mice were anesthetized and mask ventilated with a combination of 3% isoflurane and 97% O2. Deep surgical anesthesia was confirmed by abolished pain reflexes. […] Then 7 ml of buffer A (in mM: HEPES 25, NaCl 130, KCl 5.4, NaH2PO4 0.4, MgCl2 0.5, D-glucose 22, pH 7.4) with 5 mM EDTA was injected into the right ventricle. Thereafter, the aorta was clamped and the heart was excised. 10 ml of the buffer solution and thereafter 3 ml of the buffer solution without EDTA were injected into the left ventricle over 2–5 min. Then preheated solution A containing 0.8 mg/ml collagenase II was injected into the left ventricle over ∼20 min. The atria and right ventricle were removed, and the cardiomyocytes were isolated according to the same procedure as described for the Langendorff-based isolation of rat cardiomyocytes (described further below).
Isolated cardiomyocytes were loaded for 10 min with 5 μM fluo-4 AM ester (Molecular Probes, Eugene, OR, United States) at RT. The superfusate contained (mM): NaCl 140, HEPES 5, KCl 5.4, CaCl2 1, MgCl2 0.5, D-glucose 5.5 and NaH2PO4 0.4. The pH was adjusted to 7.4. […] Whole-cell Ca^2+ transients were recorded in field stimulated cardiomyocytes at 0.5 Hz (2.5 ms bipolar pulses) and 37°C with Cairn Research Optoscan Monochromator (excitation 485 nm, emission 515 nm long pass) (Cairn Research Ltd., United Kingdom). Regular Ca^2+ transients were recorded for at least 3 min per cell, before the field stimulation was stopped and 10 mM caffeine was added. Background fluorescence was recorded for each cell. Ca^2+ transients amplitude and SR Ca^2+ load was calculated as maximal fluorescence (F) divided on resting fluorescence (F0) on field stimulated and caffeine evoked Ca^2+ transients, respectively (See Figure 4I for illustration of protocol details). […] The NCX rate constant was calculated as: 1/τcaff ([Díaz et al., 1997]), as the non SERCA2, non-NCX mediated Ca^2+ removal was considered negligible.

[3] = tested on: NCX1; assay: NCX activity (NCX rate constant, 1/τcaff) in isolated adult cardiomyocytes; type: cell-based, mouse; settings: 1 μM, vs TAT-tagged scrambled control
Protocol: as §1, with “Animal experiments was approved by the Norwegian National Animal Research Committee (FDU 7040).” left out
Isolated cardiomyocytes were loaded for 10 min with 5 μM fluo-4 AM ester (Molecular Probes, Eugene, OR, United States) at RT. […] Whole-cell Ca^2+ transients were recorded in field stimulated cardiomyocytes at 0.5 Hz (2.5 ms bipolar pulses) and 37°C with Cairn Research Optoscan Monochromator (excitation 485 nm, emission 515 nm long pass) (Cairn Research Ltd., United Kingdom). Regular Ca^2+ transients were recorded for at least 3 min per cell, before the field stimulation was stopped and 10 mM caffeine was added. Background fluorescence was recorded for each cell. […] The NCX rate constant was calculated as: 1/τcaff ([Díaz et al., 1997]), as the non SERCA2, non-NCX mediated Ca^2+ removal was considered negligible.

[4] = biological target: B2; assay: SPR; Biacore X100; biotinylated pSer68-PLMcyt or PLMcyt immobilised on SA chip (~50-200 RU); His-TF-NCX1cyt dialysed into running buffer injected at a range of concentrations (single cycles), 30 or 100 ul/min, 180 s, dissociation 600 s; 1:1 (Langmuir) fit
[5] = biological target: biotin-ahx-PLMcyt; assay: as above
[6] = biological target: B2; assay: SPR; settings: both partners purified
[7] = biological target: T2, OPT with three amino acids deleted at …; assay: peptide or protein array; peptides spot-synthesised on cellulose membranes, blocked in 1% casein, overlaid with 5 uM biotinylated pSer68-PLM peptide in 1% casein overnight at 4°C; detected with anti-biotin-HRP; settings: both partners purified
[8] = biological target: T3, mini-OPT; assay: as above; settings: both partners purified
[9] = biological target: T4, OPT with two amino acids deleted at its …; assay: as above; settings: both partners purified

Y14A: Y14A substitution of mini-OPT on the peptide array; negative control in pull down (PYKEIEQLIELANAQV)
pSer68-PLM binding on peptide array [1]: abolished pSer68-PLM binding

NOPT-TAT: NOPT made cell permeable by addition of a TAT tag to its C-terminus ([NMePro]YKEIEQLIELANYQVRKKRRQRRR)
Ca2+ transient amplitude ([2]; HF cardiomyocytes): did not change
sarcoplasmic reticulum (SR) Ca2+ load ([2]; HF cardiomyocytes): did not change
Ca2+ transient amplitude ([2]; SHAM cardiomyocytes): did not change
sarcoplasmic reticulum (SR) Ca2+ load ([2]; SHAM cardiomyocytes): did not change
increase of NCX1 activity (NCX1 rate constant) ([3]; cardiomyocytes from SHAM-operated mice, 10–13 cells from three mice): approximately 40%
increase of NCX1 activity (NCX1 rate constant) ([3]; cardiomyocytes from aorta banded HF mice, 6–7 cells from three mice): approximately 60%

PYKEIEQLIELANYQV [mini-OPT]
pSer68-PLM binding on peptide array [1]: minimum sequence that was required to bind pSer68-PLMcyt

HIS-TF-NCX1cyt (domain or fragment)
Kd [4]: 4.3 nM
koff [4]: 0.0011 s⁻¹
kon [4]: 380000 M⁻¹ s⁻¹
Kd [5]: 4.1 nM
koff [5]: 0.004 s⁻¹
kon [5]: 1.1e+06 M⁻¹ s⁻¹

E6G: E6G substitution of mini-OPT on the peptide array; negative control in pull down (PYKEIGQLIELANYQV)
pSer68-PLM binding on peptide array [1]: abolished pSer68-PLM binding

B1
Kd [6]: 129 nM

B2
binding result [7]: binds
binding result [8]: binds
binding result [9]: binds
